T1: human GFRα3 on HEK293/hGFRα3/hRET/SRE-luc cells (human, UniProt O60609 32-382)
T1 sequence: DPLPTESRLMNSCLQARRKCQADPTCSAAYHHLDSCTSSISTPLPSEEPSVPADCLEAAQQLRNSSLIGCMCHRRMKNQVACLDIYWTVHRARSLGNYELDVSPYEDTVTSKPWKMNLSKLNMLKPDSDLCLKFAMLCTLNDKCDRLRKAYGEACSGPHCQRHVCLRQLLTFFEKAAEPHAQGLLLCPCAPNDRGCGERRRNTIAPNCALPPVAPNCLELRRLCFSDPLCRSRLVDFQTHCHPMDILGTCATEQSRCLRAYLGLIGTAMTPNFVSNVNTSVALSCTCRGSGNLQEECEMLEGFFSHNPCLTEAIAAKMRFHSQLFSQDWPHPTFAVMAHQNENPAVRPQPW


Key:
[1] = biological target: T1, human GFRα3 on …; experiment: cell-based or functional assay
[2] = biological target: T2, human GFRα3 expressed with a C-terminal myc-myc-hexahistidine tag (human, UniProt O60609 32-374, biotinylated (sites not given) in ELISA format 2 and in the Octet cross-competition; not in SPR); experiment: Octet RED384; 25 µg/mL first antibody on streptavidin-captured biotin-hGFRα3-mmH
T2 construct: also called hGFRα3-mmh; hGFRα3-mmH
Procedure: (§1) A cross-competition assay was conducted to assess the ability of select antibodies to compete with one another for binding to human GFRα3 using an Octet RED384 biosensor (Fortebio Inc.). The entire experiment was performed at 25° C. with the flow rate of 1000 rpm in Octet HBST buffer (0.01 M HEPES pH7.4, 0.15M NaCl, 3 mM EDTA, 0.05% v/v Surfactant P20, 0.1 mg/mL BSA). To assess whether 2 antibodies were able to compete with one another for binding to their respective epitopes on biotinylated recombinant human GFRα3 expressed with a C-terminal myc-myc-hexahistidine tag (biotin-hGFRα3-mmH; SEQ ID:370), around ˜1.2 nm of biotin-hGFRα3-mmH was first captured onto streptavidin-coated Octet sensor tips (Fortebio Inc, #18-5019) by submerging the tips for 1 minute into a 10 μg/mL solution of biotin-hGFRα3-mmH. The antigen coated sensor tips were then placed into wells containing 25 μg/mL solution of a first anti-GFRα3 monoclonal antibody for 4 minutes to saturate the biotin-hGFRα3-mmH surface. The sensor tips were then subsequently dipped into wells containing 25 μ/mL solution of a second anti-GFRα3 monoclonal antibody. The sensor tips were washed in Octet HBST buffer in between every step of the experiment. The real-time binding response was monitored during the course of the experiment and the binding response at the end of every step was recorded as shown in FIG. 9. The response of mAb-2 binding to biotin-hGFRα3-mmH pre-complexed with the first antibody was compared and competitive/non-competitive behavior of different anti-GFRα3 monoclonal antibodies was determined.
Target sequence in this assay (O60609 other isoform, or with tags, fused parts or gaps limits assumed): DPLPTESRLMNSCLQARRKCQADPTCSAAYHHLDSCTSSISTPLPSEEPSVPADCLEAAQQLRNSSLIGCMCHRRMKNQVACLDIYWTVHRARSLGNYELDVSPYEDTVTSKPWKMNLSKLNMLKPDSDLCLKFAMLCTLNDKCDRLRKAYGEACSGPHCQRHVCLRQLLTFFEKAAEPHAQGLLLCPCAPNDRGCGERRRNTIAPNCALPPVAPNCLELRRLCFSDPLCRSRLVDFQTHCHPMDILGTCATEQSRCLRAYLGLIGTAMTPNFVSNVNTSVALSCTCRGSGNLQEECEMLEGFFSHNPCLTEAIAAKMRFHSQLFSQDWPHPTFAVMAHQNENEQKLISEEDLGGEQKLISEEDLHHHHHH

[3] = biological target: T2, human GFRα3 expressed with a C-terminal …; experiment: Octet cross-competition; biotin-hGFRα3-mmH pre-saturated with first antibody H4H2292S
Procedure: as §1
Target sequence in this assay (O60609 other isoform, or with tags, fused parts or gaps limits assumed): as above

[4] = biological target: T2, human GFRα3 expressed with a C-terminal …; experiment: Octet cross-competition; biotin-hGFRα3-mmH pre-saturated with first antibody H4H2350P
Procedure: as §1
Target sequence in this assay (O60609 other isoform, or with tags, fused parts or gaps limits assumed): as above

[5] = biological target: T2, human GFRα3 expressed with a C-terminal …; experiment: Octet cross-competition; biotin-hGFRα3-mmH pre-saturated with first antibody H4H2352S
Procedure: as §1
Target sequence in this assay (O60609 other isoform, or with tags, fused parts or gaps limits assumed): as above

[6] = biological target: T2, human GFRα3 expressed with a C-terminal …; experiment: blocking ELISA 2, biotin-hGFRα3-mmH to coated hARTEMIN-mmH + hRET-10His
Procedure: The equilibrated sample solutions were then transferred to the hARTEMIN-mmH-coated plate. […] Absorbance was recorded at 450 nm on a Victor X5 plate reader (Perkin Elmer) to determine the amount of free hGFRα3-hFc in the pre-equilibrated hGFRα3-hFc-antibody solutions that was able to bind to the plate coated with hARTEMIN-mmH. IC₅₀ values, defined as the concentration of antibody required to reduce the signal from a constant concentration of hGFRα3-hFc by 50%, were calculated from the data using Prism software from GraphPad. The absorbance measured at the constant amount of 120 pM hGFRα3-hFc in the absence of anti-GFRα3 antibody is defined as 0% blocking and the absorbance with no added hGFRα3-hFc is defined as 100% blocking. The observed absorbance in the wells containing the highest antibody concentration was used to calculate the maximum blocking percent shown in the table.
In the second ELISA format, the plates, samples and data were processed similarly as for the first format except both hARTEMIN-mmH and human RET with a C-terminal 10 histidine tag (hRET-10His; R&D Systems, #1168-CR/CF) were coated for the blocking ELISA experiment. The 96-well microtiter plates were coated with a mixture of 1.2 ug/ml hARTEMIN-mmH and 6.9 ug/ml hRET-10His proteins in PBS overnight at 4° C. and then blocked with a solution of 0.5% (w/v) BSA. A constant amount of biotinylated human GFRα3 with a C-terminal myc-myc-hexahistidine tag (biotin-hGFRα3-mmH; SEQ ID:370) at 1 nM was pre-mixed with varied amounts of anti-GFRα3 antibodies, ranging from 0 to ˜100 nM in serial dilutions, followed by a 1 hour incubation at RT to allow antibody-biotin-hGFRα3-mmH binding to reach equilibrium. The equilibrated samples were then transferred to the coated plate. After 1 hour of binding, the plate was washed, then the bound biotin-hGFRα3-mmH was detected using HRP conjugated streptavidin (Pierce, #N200), and colorimetric signals were developed using TMB HRP substrates.

Binder | IC50 (SRE-luc, HEK293/hGFRα3/hRET cells, 100 pM hARTEMIN-mmH) [1] | Amount of Antibody 1 bound (nm) [2] | binding response of second antibody (nm) [3] | binding response of second antibody (nm) [4] | binding response of second antibody (nm) [5] | % max blocking [6] | IC50 [6]
H4H2236N3 (antibody, human IgG4, V domains shown, human IgG4 Fc (H4H)) VH: EVQLLESGGNLVQPGGSLRLSCAASGFTFSSYAMTWVRQAPGKGLEWVSTISGSGTSTYYADSVKGRFTISRDNSRDTVFLQMNSLRAEDTAVYYCSKPSALRFLHWLAMDVWGQGTLVTVSS VL: DIQMTQSPSSLSAFVGDRVTITCRASQDIRNYLDWFQQKPGKAPKSLIYAASNLQSGVPSRFGGSGSGTDFTLTINSLQPEDFVTYYCQQYNSYPPTFGGGTKVEIK | 1.5 nM | 2.64 nm | 2.24 nm | 1.98 nm | 2.15 nm | – | –
H4H2344S (antibody, human IgG4, V domains shown, human IgG4 Fc (H4H)) VH: EVQLVESGGGVVQPGRSLRLSCAASGFSFSDYVMHWVRQAPGKGLEWVASIWFDGSNEFYADSVKGRFTISRDNSKNTLFLQMNSLRAEDTAVYYCAKKGVLVATSAFDIWGQGTMVTVSS VL: DIQMTQSPSSLSASVGDRVTITCRASQSINNYLNWYHQKPGKAPKLLIYAASSLQSGVPSRFSGSGSGTDYTLTISSLQPEDFGNYYCQQSYRTSMYTFGQGTKVEIK | 48 nM | – | – | – | – | 100% | 0.459 nM
H4H2293P (antibody, human IgG4, V domains shown, human IgG4 Fc (H4H)) VH: QVQLVESGGGVVQPGRSLRLSCAASGFSFSDYVMHWVRQAPGKGLEWVASIWFDGSNELYADSVKGRFTISRDNSKNTLFLQMNSLRAEDTAVYYCAKKGVLVATSAFHIWGQGTMVTVSS VL: AIQMTQSPSSLSASVGDRVTITCRASQNINNYLNWYHQKPGKAPNLLIYAASSLQSGVPSRFSGSGSGTDYTLTISSLQPEDFGNYYCQQSYSTSMYTFGQGTKLEIK | 20 nM | – | – | – | – | 95% | 7.38 nM
H4H2294S (antibody, human IgG4, V domains shown, human IgG4 Fc (H4H)) VH: EVQLVESGGGLVQPGGSLRLSCAASGFTFSSYAMSWVRQAPGKGLEWVSVISGSGGSTYYADAVKGRFTISRDNSKHTLYLQMNSLRAEDTAVYYCTKPSSYSSSNFYYGMDVWGQGSTVTVSS VL: DIQLTQSPSSVSASVGDRVTITCRASQGISSWLAWYQQKPGKAPKLLIYAASSLQSGVPSRFSGSGSGTDFTLTISSLQPEDFATYYCQQTNSFPFPFGPGTKVDIK | – | 2.91 nm | 2.31 nm | 2 nm | 2.25 nm | 95% | 0.952 nM

Now from value to binder:

IC50 (SRE-luc, HEK293/hGFRα3/hRET cells, 100 pM hARTEMIN-mmH) [1] | Amount of Antibody 1 bound (nm) [2] | binding response of second antibody (nm) [3] | binding response of second antibody (nm) [4] | binding response of second antibody (nm) [5] | % max blocking [6] | IC50 [6] | Binder
26 nM | – | – | – | – | 99% | 0.797 nM | H4H2346S (antibody, human IgG4, V domains shown, human IgG4 Fc (H4H)) VH: QVQLVESGGGVVQPGRSLRLSCAASGFSFSDYVMHWVRQAPGKGLEWVASIWFDGSNEFYADSVKGRFTISRDNSKNTLFLQMNSLRAEDTAVYYCAKKGVLVATSAFDIWGQGTMVTVSS VL: EIVMTQSPSSLSASVGDRVTITCRASQSINNYLNWYHQKPGKAPKLLIYAASSLQSGVPSRFSGSGSGTDYTLTISSLQPEDFGNYYCQQSYRTSMYTFGQGTKVEIK
22 nM | – | – | – | – | 97% | 1.32 nM | H4H2354S (antibody, human IgG4, V domains shown, human IgG4 Fc (H4H); also called H4H2354S-1) VH: QVQLVESGGGVVQPGRSLRLSCAASGFSFSDYVMHWVRQAPGKGLEWVASIWFDGSNEFYADSVKGRFTISRDNSKNTLFLQMNSLRAEDTAVYYCAKKGVLVATSAFDIWGQGTMVTVSS VL: DIQLTQSPSSLSASVGDRVTITCRASQSINNYLNWYHQKPGKAPKLLIYAASSLQSGVPSRFSGSGSGTDYTLTISSLQPEDFGNYYCQQSYRTSMYTFGQGTKVEIK
2.3 nM | – | – | – | – | 100% | 1.45 nM | H4H2364S (antibody, human IgG4, V domains shown, human IgG4 Fc (H4H)) VH: EVQLVESGGGLEQPGGSLRLSCAASGFTFSSYVMSWVRQVPGKGLEWVSVISGSGGSTYYADSVKGRFTISRDNSKNTLYLQMNSLRAEDTAVYYCAKPSSYSSSNFHYGMDVWGQGTTVTVSS VL: DIQMTQSPYSVSASVGDRVTITCRASQGISSWLAWYQQKPGRAPKLLIYAASSLQSGVPSRFSGSGSGTDFTLTISSLQPEDFATYYCQKTNSFPFTFGPGTKVEIK
7.1 nM | – | – | – | – | 98% | 1.62 nM | H4H2341S (antibody, human IgG4, V domains shown, human IgG4 Fc (H4H)) VH: EVQLVESGAEVKKSGSSVKVSCKASGGTFSRYAISWVRQAPGQGLEWMGGIIPLFGTLNYAQKFQGRVTLTTDESTSTAYMELSSLRSEDTAVYYCAVFYYGSGSYRNWFDPWGQGTLVTVSS VL: not shown
26 nM | – | – | – | – | 75% | 14.6 nM | H4H2345S (antibody, human IgG4, V domains shown, human IgG4 Fc (H4H)) VH: EVQLVESGGGLVRPGRSLRLSCAASGFTFDNYAMHWVRQVPGKGLEWVSGITWNSVSLGYADSVKGRFTISRDNAQNSLYLQMNSLRTVDTALYYCAKDRWGGSYYFDFWGQGTLVTVSS VL: DIVMTQSPSSLSASVGDRVTITCRASQGISNYLAWYQQKPGKVPKLLIYSASTLQSGVPSRFSGSGSGTDFTLTISNLQPEDFATFFCQKYNSAPTFGGGTKVEIK
– | 3.31 nm | 1.53 nm | 0.25 nm | 1.43 nm | 91% | 1.29 nM | H4H2350P (antibody, human IgG4, V domains shown, human IgG4 Fc (H4H)) VH: QVQLQESGPGLVKPSETLSLTCTVSGGSISTYYWSWFRQPPGKGLEWIGYIYYSGSTNHNPSLKSRVTISVDTSKNQFSLKLRSVTAADTAVYYCARVGPVGWGSWGNFDYWGQGTLVTVSS VL: DIQLTQSPSFLSASVGDRVTITCWASQGISSYLAWSQQKPGKAPKLLIYAASTLQSGVPSRFSGSGSGTEFTLTISSLQPEDFATYYCQQLNSYPWTFGQGTKVEIK

Reference: US20140056903A1 (Regeneron, published 2014)
